One test concerns the target T1, Histidine-tagged FcγRI (UniProt P12314 16-288, limits assumed).
T1 construct: also called Fc gamma receptor I; not shown: histidine tag
Put plainly: SPR (BIAcore T200), his-tagged receptor captured by anti-his antibody on a CM5 chip, antibody as analyte, single-cycle kinetics, 25 C. How it is done: (§1) Binding kinetics experiments were performed at 25° C. using a BIAcore T200. An anti-his antibody was immobilized on a CM5 chip. Histidine-tagged FcγRI and FcγRIIIa at a concentration of 0.5 μg/mL prepared in HBS-EP buffer (0.01M HEPES pH7.4, 0.15M NaCl, 3 mM EDTA, 0.005% Tween-20) were injected independently for 60-s using a flow rate of 5 μL/min in the active flow cell only. […] Antibody concentrations in the range of 0.48 to 300 nM were used for FcγRI and 7.8 nM to 2000 nM for FcγRIIIa. Following each run, flow cells were regenerated with a 60 s injection of 10 mM glycine pH 1.7 using a flow-rate of […]. Data was double referenced, using subtraction of both reference flow cell and blank cycles. Analysis was performed using BIA evaluation software.
Background: Surface plasmon resonance follows binding to a sensor surface in real time, without labels.

The target of test [1] is T2, Histidine-tagged FcγRIIIa (UniProt P08637 17-208, limits assumed).
T2 construct: also called Fc gamma receptor IIIa; not shown: histidine tag
T2 sequence (P08637 17-208 limits assumed): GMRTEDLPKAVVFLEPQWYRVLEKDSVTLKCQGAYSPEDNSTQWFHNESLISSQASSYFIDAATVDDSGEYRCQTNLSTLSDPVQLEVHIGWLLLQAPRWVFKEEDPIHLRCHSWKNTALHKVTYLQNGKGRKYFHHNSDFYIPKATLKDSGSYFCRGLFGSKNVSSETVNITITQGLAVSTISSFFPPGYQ
The description is as above. How it is done:
as §1

A further test deals with T3, Purified human C1q (human, UniProt P02745 23-245; P02746 28-253; P02747 29-245).
T3 construct: also called human complement protein C1q
T3 sequence (P02745 23-245 limits assumed, chain 1 of 3): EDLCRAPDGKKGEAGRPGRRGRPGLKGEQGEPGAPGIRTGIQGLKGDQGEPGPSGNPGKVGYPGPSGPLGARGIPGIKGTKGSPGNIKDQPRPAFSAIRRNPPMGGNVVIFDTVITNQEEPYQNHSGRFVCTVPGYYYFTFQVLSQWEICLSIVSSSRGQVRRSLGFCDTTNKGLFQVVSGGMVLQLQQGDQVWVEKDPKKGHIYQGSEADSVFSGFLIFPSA
T3 sequence (P02746 28-253 limits assumed, chain 2 of 3): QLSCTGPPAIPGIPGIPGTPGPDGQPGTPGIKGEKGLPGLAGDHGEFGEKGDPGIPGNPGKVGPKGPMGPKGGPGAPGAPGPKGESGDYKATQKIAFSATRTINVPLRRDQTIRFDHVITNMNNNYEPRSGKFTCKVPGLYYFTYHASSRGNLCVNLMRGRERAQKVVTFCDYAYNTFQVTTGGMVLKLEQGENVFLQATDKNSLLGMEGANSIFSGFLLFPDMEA
T3 sequence (P02747 29-245 limits assumed, chain 3 of 3): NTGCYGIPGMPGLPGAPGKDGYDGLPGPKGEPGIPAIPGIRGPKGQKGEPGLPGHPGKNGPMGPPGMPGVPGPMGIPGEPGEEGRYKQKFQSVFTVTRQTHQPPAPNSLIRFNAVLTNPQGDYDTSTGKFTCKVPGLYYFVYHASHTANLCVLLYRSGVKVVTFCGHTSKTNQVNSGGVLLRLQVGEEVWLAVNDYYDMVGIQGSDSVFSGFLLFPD
Put plainly: ELISA: antibody coated on the plate in 1:2 titration, purified human C1q at 5 ug/mL, HRP anti-human C1q detection. Here is the method:
Complement engagement liabilities were assessed by C1q ELISA binding. The antibody panel was titrated 1:2 from a top concentration of 10 ug/mL in 1×PBS for overnight coating at 4 C. Plates were then blocked After a 2 hour blocking step in 1% BSA. Purified human C1q was then applied at 5 ug/mL in 1% BSA for 2 hours at room temperature followed by detection with HRP-conjugated anti-human C1q antibody and TMB development.

T1 sequence (P12314 16-288 limits assumed): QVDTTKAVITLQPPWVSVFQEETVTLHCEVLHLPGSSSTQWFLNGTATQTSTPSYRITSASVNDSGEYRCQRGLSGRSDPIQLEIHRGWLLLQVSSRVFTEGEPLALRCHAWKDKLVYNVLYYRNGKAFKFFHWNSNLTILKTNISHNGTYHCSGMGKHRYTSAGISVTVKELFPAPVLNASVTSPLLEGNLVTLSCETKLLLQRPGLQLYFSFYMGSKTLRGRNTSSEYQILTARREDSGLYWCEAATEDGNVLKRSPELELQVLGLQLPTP

B1: OG1950 (antibody, IgG1)
heavy: EVQLVESGGGLVQPGGSLRLSCAASGYDFTHYGMNWVRQAPGKGLEWVGWINTYTGEPTYAADFKRRFTFSLDTSKSTAYLQMNSLRAEDTAVYYCAKYPYYYGTSHWYFDVWGQGTLVTVSSASTKGPSVFPLAPSSKSTSGGTAALGCLVKDYFPEPVTVSWNSGALTSGVHTFPAVLQSSGLYSLSSVVTVPSSSLGTQTYICNVNHKPSNTKVDKKVEPKSCDKTHTCPPCPAPEAAGAPSVFLFPPKPKDTLMISRTPEVTCVVVDVSHEDPEVKFNWYVDGVEVHNAKTKPREEQYNSTYRVVSVLTVLHQDWLNGKEYKCKVSNKALPAPIEKTISKAKGQPREPQVYTLPPSREEMTKNQVSLTCLVKGFYPSDIAVEWESNGQPENNYKTTPPVLDSDGSFFLYSKLTVDKSRWQQGNVFSCSVMHEALHNHYTQKSLSCSPGK
light: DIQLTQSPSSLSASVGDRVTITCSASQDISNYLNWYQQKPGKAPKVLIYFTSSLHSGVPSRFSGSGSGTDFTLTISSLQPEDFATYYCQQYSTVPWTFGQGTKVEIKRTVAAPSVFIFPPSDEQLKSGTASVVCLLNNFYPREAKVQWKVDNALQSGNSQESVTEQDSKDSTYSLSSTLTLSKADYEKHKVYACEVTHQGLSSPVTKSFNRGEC
notes: also called anti-VEGF-A antibody with an L443C (EU numbering) mutation; unconjugated antibody
For B1, the binding result in the test with Histidine-tagged FcγRI is “no binding (tested: 0.48 to 300 nM)”; in test [1], “no binding (tested: 7.8 nM to 2000 nM)”; with Purified human C1q, “binds”.

B2: Avastin (bevacizumab) (antibody, human IgG1, kappa)
heavy: not shown
light: not shown
notes: Commercial product
On to B2, for which, in the test with Purified human C1q, the binding result is listed as “binds”.

The values above are taken from patent publication US20210324063A1 (KODIAK SCIENCES, published 2021).
